Among the data in article PMC9908889 are Kd and K half values, retold here.

Data set [1] deals with MORF WH2 (Homo sapiens). Description: EMSA. As to conditions: EMSA: 20-25 mM Tris-HCl pH 7.5, 20-150 mM NaCl, 0-0.2 mM EDTA, 0-5 mM DTT, 0-20% glycerol, 4 C, NCP197 EMSA: 10 mM Tris, 1 mM EDTA, 10 mM NaCl, 1 mM TCEP, FP: ….
Data set [2] deals with T1, MORF WH1 (Homo sapiens) (UniProt Q8WYB5).
T1 sequence: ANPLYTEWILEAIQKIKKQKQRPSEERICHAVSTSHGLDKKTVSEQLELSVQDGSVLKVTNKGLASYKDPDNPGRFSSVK
Nature of the data set: EMSA. As to conditions: His-tagged; EMSA: 20-25 mM Tris-HCl pH 7.5, 20-150 mM NaCl, 0-0.2 mM EDTA, 0-5 mM DTT, 0-20% glycerol, 4 C; NCP197 EMSA: 10 mM Tris, 1 mM EDTA, 10 mM NaCl, 1 mM TCEP; FP: ….

For data set [3], the target named is T2, MORF WH1-WH2 (Homo sapiens) (UniProt Q8WYB5).
T2 sequence: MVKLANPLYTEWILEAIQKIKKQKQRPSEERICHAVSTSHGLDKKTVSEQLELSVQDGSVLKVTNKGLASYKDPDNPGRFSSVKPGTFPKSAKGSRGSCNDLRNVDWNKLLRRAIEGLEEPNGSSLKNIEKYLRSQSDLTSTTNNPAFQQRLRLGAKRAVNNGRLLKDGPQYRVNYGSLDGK
Nature of the data set: fluorescence polarization. As to conditions: EMSA: 20-25 mM Tris-HCl pH 7.5, 20-150 mM NaCl, 0-0.2 mM EDTA, 0-5 mM DTT, 0-20% glycerol, 4 C; NCP197 EMSA: 10 mM Tris, 1 mM EDTA, 10 mM NaCl, 1 mM TCEP; FP: ….

The target of data set [4] is T1, MORF WH1 (Homo sapiens). Description: fluorescence polarization. As to conditions: EMSA: 20-25 mM Tris-HCl pH 7.5, 20-150 mM NaCl, 0-0.2 mM EDTA, 0-5 mM DTT, 0-20% glycerol, 4 C; NCP197 EMSA: 10 mM Tris, 1 mM EDTA, 10 mM NaCl, 1 mM TCEP; FP: ….
Data set [5] relates to MORF WH2 (Homo sapiens). Nature of the data set: fluorescence polarization. As to conditions: EMSA: 20-25 mM Tris-HCl pH 7.5, 20-150 mM NaCl, 0-0.2 mM EDTA, 0-5 mM DTT, 0-20% glycerol, 4 C, NCP197 EMSA: 10 mM Tris, 1 mM EDTA, 10 mM NaCl, 1 mM TCEP, FP: ….

What is called Kd is the constant that tells how readily two partners part at equilibrium. Take A-DNA15 (15 bp A-rich): in data set [1] (source data name GST-MORF WH2), the Kd is 7.8 µM.
Consider C-DNA15 (15 bp C-rich), for which the Kd in data set [1] turned out to be 18 µM.
CpG-DNA16 displayed a Kd in data set [2] of 2 µM.
As for DNA147 (601 Widom), the K half was found to be 62 nM in data set [3] and 15 µM in data set [4].
As to NCP147, the K half was 12 nM in data set [3], 1000 nM in data set [5] and 9 µM in data set [4].
NCP207: the K half was found to be 7 nM in data set [3]; 1400 nM in data set [5] (text says NCP187, source data and Methods say NCP207); 0.3 µM in data set [4].
